This experiment deals with PI-3-kinase (human (endogenous in Caco2)) (UniProt P42338). In words: co-IP; as the basal co-IP, but Caco2 Dsg2^WT cells incubated for 24h with TNFα (100 ng/ml) before lysis; Dsg2/PI-3-kinase ratio of optical densities, fold of controls, n=4.

The values below come from publication PMC8514949.

Chain of UniProt P42338 (P42338 whole entry): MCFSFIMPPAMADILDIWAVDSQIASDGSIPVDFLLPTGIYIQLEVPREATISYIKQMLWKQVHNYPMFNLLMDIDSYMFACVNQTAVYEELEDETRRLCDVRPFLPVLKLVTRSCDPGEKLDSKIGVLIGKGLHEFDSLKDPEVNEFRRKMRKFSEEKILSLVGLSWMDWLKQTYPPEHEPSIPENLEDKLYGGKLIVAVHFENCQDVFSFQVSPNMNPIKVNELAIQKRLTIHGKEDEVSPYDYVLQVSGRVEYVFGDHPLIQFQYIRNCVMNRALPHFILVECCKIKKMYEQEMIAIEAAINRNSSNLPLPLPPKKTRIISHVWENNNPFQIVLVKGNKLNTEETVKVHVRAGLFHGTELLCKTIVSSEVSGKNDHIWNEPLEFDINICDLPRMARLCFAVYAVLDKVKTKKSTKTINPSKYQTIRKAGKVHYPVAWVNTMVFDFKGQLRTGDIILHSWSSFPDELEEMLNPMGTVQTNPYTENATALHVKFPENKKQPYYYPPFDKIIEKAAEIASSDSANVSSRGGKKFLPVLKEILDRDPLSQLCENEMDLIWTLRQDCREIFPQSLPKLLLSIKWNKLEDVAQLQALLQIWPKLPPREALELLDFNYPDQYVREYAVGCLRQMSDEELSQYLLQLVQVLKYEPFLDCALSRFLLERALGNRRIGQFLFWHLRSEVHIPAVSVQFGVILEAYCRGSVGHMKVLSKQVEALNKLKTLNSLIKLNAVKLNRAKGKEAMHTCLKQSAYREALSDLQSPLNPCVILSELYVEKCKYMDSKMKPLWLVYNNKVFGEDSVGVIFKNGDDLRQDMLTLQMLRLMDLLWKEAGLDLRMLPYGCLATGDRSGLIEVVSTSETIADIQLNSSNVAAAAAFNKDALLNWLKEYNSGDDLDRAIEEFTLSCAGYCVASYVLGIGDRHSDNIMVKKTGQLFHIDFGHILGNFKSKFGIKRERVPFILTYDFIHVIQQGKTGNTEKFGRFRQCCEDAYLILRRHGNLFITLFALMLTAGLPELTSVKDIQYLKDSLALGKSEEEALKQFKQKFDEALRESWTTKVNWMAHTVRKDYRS

In the case of “Desmoglein 2 (from UniProt Q14126 50-1118) (natural protein)”, the fold of controls (Dsg2/PI-3-kinase ratio in the co-IP, after TNFα) (fold of controls) came out at 0.34.
